The nanobody polyreactivity screen of Harvey et al. (2022)

Assay: yeast display, Sf9 membrane polyspecificity reagent, FACS + sequencing; frameworks hold sequencing errors
Outline: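 Sorting gates, low and high (top ~1%), were placed on anti-HA fluorescence to track expression and on streptavidin fluorescence to track reagent binding. A clone's polyreactivity label is taken from the gate it came out of. The reagent was 10% biotinylated, detergent-solubilized Sf9 membrane, applied for 1 hour at 4 °C to galactose-induced yeast display cells.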

Sequence | polyreactivity (PSR sort gate)
QVQLVESGGGLVQAGGSLRLSCAASGRIFGVYALGWYRQAPGKERELVAVISSGGSTKYADSVKGRFTISRDTAKNTVYLQMNSLKPEDTAVYYCAAADYRFWSRYDYWGQGTQVTVSS | low polyreactivity
QVQIVESGGGLVQAGGSLRLSCAAYGRIFVPYAMGWYRPAPGKERELVAAITWRGGSTYYAYSVKGRFTISRDNAKNTVYLQMNSMNPDDTGVYYCNSDEASAGFWFSHLQLGMDYWGQGTQVTVSS | low polyreactivity
QVQLVESGGGLVQAGGTLRLSCAASGRTFSGYAMGWYRQAPGKERELVAAIDRGDGTNYADSVKGRFTISRDNAKNTVYLQMNSLKPEDTAVYYCAADYSYGSTSHTYTGFDYWGQGTQVTVSS | low polyreactivity
QVQLVESGGGLVKAGGSLRLSCAASGLTFYFYAMGWYRQAPGKERELVAGIRKRGGGTYYADSVKGRFTISRDNAKNTVYLQMNSLKPEDTAVYYCAKEPGWGRRSTTAYDYWGQGTQVTVSS | low polyreactivity
QVQLVESGGGIVQAGGSLRLSCAASGRIFYFNAMGWYSQAPGKERELVAAISGSGGDTYYADSVKGRFTISRDNAKNTVYLQMNSLKPEDTAVYFCAKEYIFRLWGQGTQVTVSS | low polyreactivity
QVQLVESVGGLVQAGGSLRLSCAGSGSIFFRNSMLWYRQAPGKERELVAAIRSSVSSTYYADSVKGRFTISRDNAKNTVYLQLNSLKPEDTAVYYCAAAARSYVGYYYWGQGTQVTVSS | low polyreactivity
QVQLVESGGGLVQAGGSLRLSCAASGYTFAYNGMGWYRQAPGKERELVAVIDWSTGDTYYADSVKGRFTISRDNAKNTVYLQMNSLKPEDTAVYYCAADFFEGLYVFWGQGTQVTVSW | low polyreactivity
QDQLVESVGGLDQAGVSLRLSCAASGFIFRAYAMGWYRQAPGKERELVAAITKRSGTTYYADSVKGRFTISRDNAKNTVYLQMNSLKPEDTAVYYCAAKTLYNSGTQDRAMGYWGQGTQVTVSS | high polyreactivity
QVQLVESGGGLVQAGGSLRLSCAASGFTFDGYAMGWDRQAPGNERELVAAFSDSGDSTYYADSVKGRFTISRDNAKNTVYLQMNSLTPEDTAVYYCAAGLGYYWSDYFAYDSCGQGTQVTVSS | low polyreactivity
QVQLVESGGGLVQAGGSLRLSCAASGLTFRYYAMGWYRQAPGKERELVAAITRRGSTYYADSVKGRFTISRDNAKNTVYLQMNSLKPEDTAVYYCATVTGFHSSPLRDLDYWGQGTQVTVSS | high polyreactivity
QVQLVESGGGLVQAGGSLRLSCAASGRIFSYYAMGWYRQAPGKERELVAAISWSGGSTYYADSVKGRFTISRDNAKNTVYLQMNSLKPEDTAVYYCAAGVHWDRGDYWGQGTQVTVSS | low polyreactivity
QVQLVESGGGLVQAGGSLRLSCAASGSTVYYNAMGWYRQAPGKEREFVAAINCRGGSTYYADSVKGRFTISRDNSKNTVYLQMNSLKPEDTAVYYCAAEEPSTYYYVRSGYDYHFWEMYSWGQGTQVTVSS | low polyreactivity
QVQLVESGGGLVQAGGSLRLSCAASGRTFWDYAMGWYRQAPGKERELVAAITGGDSTYADSVKGRFTISRDNAKNTVYLQMNSLKPEDTAVYYCNADSTWDPYVRWALLYEYWGQGTQVTVSS | low polyreactivity
QVQLVESGGGLVQAGGSLRLSCDASGLTFHRYAMGWYRQAPGKERELVAAINYSGGRTYYADSVKGRFTISRDNAKNTFYLQMNSLKPEDTAVYYCAAPRASGYFWGQGTQLTVSS | high polyreactivity
QVQLVESGGGLVQAGGSLRLSCAASGITFYYYAMGWYRQAPGKERELVADISSSGGSTYYADSVKGRFTISRDNAKNTVYLQMNSLKPEDTAVYYCNAVYRWYRPRVRFFRYDYWGQGTQVTVSS | high polyreactivity
QVQLVESGGGLVQAGGSLRLSCAASGSIFGYYAMGWYRQAPGKERELVASIRRGSSTNYADSVKGRFTISRDNAKHTVYLQMNSLKPEDTAVYYCNAVLLSYDGRGYSNLYDYWGQGTQVTVSS | low polyreactivity
QVQLEESGGGLVQAGGSLRLSCAASGSIFWIYALGWYRQAPGKERELVATITRRGGSTYYADSVKGRFTISRDNAKNTVYLQMNSLKPEDTAVYYCATEPGYTYLTSYKYDYWGQGTQVTVSS | low polyreactivity
QVQLVESGGGLVQAGGSLRLSCAASGGIYYYAMGWYRQAPGKERELVAAISSGGGNTNYADSVKGRFTLSRDNAKNTVYLQMNSLKPEDTAVYYCATDGFIPTYSYTEIGYDYWGQGTQVTVSS | low polyreactivity
QVQLVESGGGLVQAGGSLRLSCAASGITLDVNALGWYRQAPGKERELVADITWSDDSTYYADSVKGRFTISRDNAKNTVYLQMNSLKPEDTAVYYCAADVSVSFHPRGYDYWGQGTQVTVSS | low polyreactivity
QVQLVESGGGLVQAGGSLRLSCAASGSIFGRNAKGSYRQAPGKERELVAAITVSGGRTYYADSVKGRFTISRDNAKNTVYLQMNSLKPEDTAVYYCNKYPVYRAVYGGGYEYWGQGTQVTVSS | high polyreactivity
QVQLVESGGGLVQAGGSLRLSCAASGGTFWYNAMGLYRQAPGKERELVANIRRSGGRTNYADSVKGRFTISRDNAKNTVYLHMNSLKPEDTAVYYCAARVTPYRGFYYWGQGTQVTVSS | high polyreactivity
QVQHVESGGGLVQAGGSLRLSCAASGRIFKYNAMGWYRPAPGKERELVAAISYSGGSTYYADSVKGRFTISRDNAKNTVYLQMNSVKPEDTEVYYCAKATTTREPKYGYWGQGTQVTVSS | high polyreactivity

Sequence | polyreactivity (PSR sort gate)
QVQLVESGGGLVQAGGSLRLSCAASGSIFRSYAMGWYSPSPGKERELVAAITRSGGSTYYADSVKGRFTISRDNAKNTVYLQMNSLKPEDTAVYYCAAEYYSYTWGWGHGYWGQGTQVTVSS | high polyreactivity
QVQLVESGGGLVQAGGSLRLSCAASGFIFPYYAMGWYRQAPGKERELVAANSRRGTSTFYADSVKGRFTISRDNAKNNVYLQMNSLKTEDTAVYYCNAEYGIGDDSWVQGTQVTVSS | high polyreactivity
QVQLVESGGGLVQAGGSLRLSCAASGSIFSYYAMGWNRQAHGKERELVASITRGGSTYYADSVKGRFTISRDNAKNTVYLQMNSLKPEDSAVYYCAAAARYYSRYDFPNNYWGQVTQVTVSS | low polyreactivity
QVQLVESGGGLVQAGGSLRLSCAASGTIFASYAMGWYRQAPGKERELVAAISDGGGRTYYADSVKGRFTISRDNAKNTVYLQMNSLKPEDTAVYYCAAYAVYTYRRARGYWGQGTQVTVSS | high polyreactivity
QVQLVESGGGLVQAGGSLRLSCAASGSIFYVYAMGWYRQAPGKERELDAGITTSGGSTYYADSVKGRFTISRDNAKNTVYLQMKSLKPEDTAVYYCATRNAFTAGSYNVYYGEYYWGQGTQVTVSS | low polyreactivity
QVQLVESGGGLVQAGGSLRLSCAASGSIFEVNAMGWYRQAPGKERELVAAISCSGGSTYYADSVKGRFTISRDNAKNTVYLQMNSLKPEDTAVYYCAARPAGYSGRKLYYWGQGTQVTVSS | low polyreactivity
QVQLVESGGGLVQAGGSLRLSCAASGSIFSQYAMGWYRQAPGKERELVAAITSSGGRTYYADSVKGRFTISRDNAKNTVYLQMNSLKPEDTAVYYCAARPYSKRHEYWGQGTQVTVSS | high polyreactivity
QVQLVESVGGLVQAGGSLRLSCAASVYMFYDYDMGWYRQAPGKAREFVARITSDGSTYADSVKGRFTISRDNAKNTVYLQMNMLKPEDTAVYYCNRKSRSYFWSVQDSFKYDYWGQGTQVTVSS | low polyreactivity
QLQLVESGGGLVQAGGSLRLSCAASGSILGSYAMGWYRQAPGKERELVAAITRRGSSTYYADSVKGRFTISRDNAKNTVYLQMNSLKPEDTAVYYCAVYRRWYSGLYDYWGQGTQVTVSS | high polyreactivity
QVQLVESGGGLVQAGGSLRLRCAASGRIFTTYAMVWYRQAPGKERELVADITTGGGTYYADSVKGRFTISRDNAKNTVYLQMNSLKPEDTAVYYCNADYSADYYWYYYWGQGTQVTVSS | low polyreactivity
QVQLVESGGGLVQAGGSLRLSCAASGSIFFGNAMGLYRQAPGKERELVAAISTTGGSTYYADSVKGRFTISRDNAKNTVYLQMNSLKPEDTAVYYCNADRATWWEQWWYDYWGQGTQVTVSS | low polyreactivity
QVQLVESGGGLVQAGGSLRLSCAASGLIFTSYAMGWYRQAPGKERELVAAISYSGGTTIYADSVKGRFTISRDYAKNTVYLQMNSVKPEDTAVYYCAADSLSTTHDTLGYDRDDYWGQGSQVTVSS | low polyreactivity
QVQLVESGGGLVQAGGSLRLSCAASGRIFRYYAMGWYRQAPGKERELVASISSGGSTNYADSVKGRFTISRDNAKNTVYLQMNSLKPEDTAVYYCATVRRSTGGRLYYWGQGTQVTVSS | high polyreactivity
QVQLVESGGGLVQAGGSLRLSCAASGRIFQRYTMGWYRQAPGKEREFVAAITYSGGSTHYADSVKGRFTISRDNAKNTVYLQMNSLKPEDTAVYYCNADRYYGRGYGYWGQGTQVTVSS | low polyreactivity
QVQLVESGGGLVQAGGSLRLSCAASGGTFYYYAMGWYRQAPGKERELVAAINVSGGNTYYADSVKGRFTISRDNAKNTVYLQMNSLKPEDTAVYYCAADPGARYYYWGQGTQVTVSS | low polyreactivity
QVQLVESGGGLVQAGGSLRLSCAASGFTIYYYAMGWYRQAPGKERELVASISWRGGSTYYADSVKGRFTISRDNAKNTDYIQINSLKAEDTAVYYCAAQKRGSPGNRRDYWGQGTQVTVSS | high polyreactivity
QVQLVESVGGLVQAGGSLRLSCAASGSTFHRNTMGWDRQAPGKERELVAGISLRGVRTYYADSVKGRFTISRDKAKNTVYLQMNSLKPEDTAVYYCAAGCPYTRNFKLGYWGQGTQVTVSS | high polyreactivity
QGQLVESWGGLVQAGGSLRLSCAASGSTFCDYAMGWYRQAPGQERELVAAIDWSDGSTYYADSVKGRFTSSRDNAKNTGYLQMNSLKPEDTAVYYCAAEQWYGMYYWGQGTQVTVSS | high polyreactivity
QVQLVESGGGLVQAGGSLRLSCAASGSIFSHNAMGWYRQAPGKERELVAAITGIVGSTYYADSVKGRFTISRDTAKNTVYLQMNSLNPEDTAVYYCAADNPVPEGSRTFEYWGQGTQVTVSS | low polyreactivity
QVQLVESGGGLVQAGGSLRLSCAASGIIFGYYAMGWSRKAPGKERELVAAISRGGNTNYADSVKGRFTISRDNAKNTVYLQMNSLKPEDTAVYYCAADFWSRIIYFYAVDVDYWGQGTQVTVSS | low polyreactivity
QVQLVESGGGLVQAGGSLRLSCAASGRIFTLYAMGWYRQAPGKERELVAAISYGGGGTYYADSVKGRFTISRDNAKNTVYLQMNRLKPEDSAVYFCATDDPLSQINEQGMDYWGQGTQVTVSS | low polyreactivity
